{"source": "patent US20200150131A1", "key": {"[1]": {"target": "CML conjugated to KLH (CML-KLH)", "experiment": "direct binding ELISA, CML-KLH coat 1 ug/mL, antibody at 50 ug/mL"}, "[2]": {"target": "CML conjugated to KLH (CML-KLH)", "experiment": "direct binding ELISA, CML-KLH coat 1 ug/mL, antibody at 0.07 ug/mL"}, "[3]": {"target": "CML conjugated to KLH (CML-KLH)", "experiment": "direct binding ELISA, CML-KLH coat 1 ug/mL, antibody at 0.21 ug/mL"}, "[4]": {"target": "CML conjugated to KLH (CML-KLH)", "experiment": "direct binding ELISA, CML-KLH coat 1 ug/mL, antibody at 0.62 ug/mL"}, "[5]": {"target": "CML conjugated to KLH (CML-KLH)", "experiment": "direct binding ELISA, CML-KLH coat 1 ug/mL, antibody at 1.85 ug/mL"}, "[6]": {"target": "CML conjugated to KLH (CML-KLH)", "experiment": "direct binding ELISA, CML-KLH coat 1 ug/mL, antibody at 5.56 ug/mL"}, "[7]": {"target": "CML conjugated to KLH (CML-KLH)", "experiment": "direct binding ELISA, CML-KLH coat 1 ug/mL, antibody at 16.67 ug/mL"}}, "data": [{"substance": "anti-carboxymethyl lysine (CML) antibody (R&D Systems, MAB3247)", "values": [{"measurement": "OD450", "setting": "[1]", "result": 0.462, "unit": "OD450"}, {"measurement": "OD450", "setting": "[2]", "result": 0.086, "unit": "OD450"}, {"measurement": "OD450", "setting": "[3]", "result": 0.075, "unit": "OD450"}, {"measurement": "OD450", "setting": "[4]", "result": 0.083, "unit": "OD450"}, {"measurement": "OD450", "setting": "[5]", "result": 0.092, "unit": "OD450"}, {"measurement": "OD450", "setting": "[6]", "result": 0.165, "unit": "OD450"}, {"measurement": "OD450", "setting": "[7]", "result": 0.312, "unit": "OD450"}]}]}
